The nature of this data set: protein stability index of a GFP-peptide fusion (GPS, HEK-293T) (PSI 1-6); higher = more stable.
[1] abbreviates: treatment: DMSO, c terminus: a fixed tail appended.
[2] abbreviates: treatment: MLN4924 1 uM, 8 h, c terminus: a fixed tail appended.

± gives the standard deviation.
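Also: 24-mer peptide tiles fused after GFP, lentivirally expressed, FACS-sorted into six equal bins by GFP/DsRed ratio, decoded by Illumina sequencing, PSI is the read-weighted mean bin number.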

Turning to ITVKNLRMAIGYLHSHRHLYPEGI [POMT2], the protein stability index was determined as 3.02 ± 0.38 under setting [1] and 2.88 ± 0.58 under setting [2].
As for AASPQDLAGGYTSSLACHRALQDA [MNAT1], the protein stability index was found to be 4.21 ± 0.25 under setting [1] and 4.24 ± 0.37 under setting [2].
For AILYYYQSGGRLRRPVNVPLDMFS [KCNA1], in that order: 2.69 ± 0.84 and 2.29 ± 0.42.
As for MAQTVPPCELPCKEYDVARNTGAY [TEKT4], the protein stability index by setting is: under setting [1], 4.16 ± 0.27; under setting [2], 4.08 ± 0.26.
LTRMTRVSEFLKVAEQVGIDKGDI [SNAP91] came in with a protein stability index under setting [1] of 3.39 ± 0.23 and a protein stability index under setting [2] of 3.48 ± 0.23.
On to GLSQVLLRGGGQVLLGWTLHYFPF [POMT2], for which the protein stability index came out at 2.95 ± 0.26 under setting [1] and 2.97 ± 0.64 under setting [2].
Regarding WKALSEFALQSDLDQPAFQQLVSF [ISL2], the protein stability index by setting is: under setting [1], 2.21 ± 0.14; under setting [2], 2.31 ± 0.37.
With MAEHRSMDGRMEAATRGGSHLQAA [SCNN1D], the protein stability index was determined as 4.56 ± 0.27 under setting [1] and 4.648 ± 0.04 under setting [2].
Turning to IWSEVFTVEKPGGKKVAVVLMDTQ [ATL3], the protein stability index stood at 2.2 ± 0.34 under setting [1] and 2.37 ± 0.39 under setting [2].
For MAAESLPFSFGTLSSWELEAWYED [DDIT3], the protein stability index runs as follows: under setting [1], 3.21 ± 0.074; under setting [2], 3.45 ± 0.23.
Consider ESFILDQDDLENPMLETASKLLLS [ANKRD17], for which the protein stability index came out at 3.99 ± 0.22 under setting [1] and 4.1 ± 0.38 under setting [2].
For ELDRWLYHLEKQTALLGGPRRCHS [PLEKHN1], in that order: 2.24 ± 0.19 and 2.17 ± 0.39.
For RGTYEQDGRFEKRQGNPSWKKQQK [ZNF396], in that order: 4.63 ± 0.34 and 4.72 ± 0.41.
The corresponding values for FLRQLRASHLGNELEGTEELCCVA [C2CD2L] are 2.98 ± 0.1 and 3.19 ± 0.3.
As for TLSRPPPAQVPREVLKVQTHLENP [TFE3], the protein stability index reads like this: under setting [1], 4.3 ± 0.11; under setting [2], 4.41 ± 0.19.
The corresponding values for IYKLEEHEEFFPAFQAFTNDLLEI [CEP70] are 2.43 ± 0.24 and 2.39 ± 0.072.
As to RPQPRGLLGWGYYLIMLPFRFTYY [FAF2], the protein stability index is, setting by setting: under setting [1], 3.86 ± 0.18; under setting [2], 3.48 ± 0.077.
In the case of AEQLRIELNAEKFKNSLLQKELKK [WEE1], the protein stability index is, setting by setting: under setting [1], 3.88 ± 0.28; under setting [2], 3.94 ± 0.42.
On to KMRMGGRVDFEEFVELIGPKLREE [CABP4], for which the protein stability index reads like this: under setting [1], 3.62 ± 0.11; under setting [2], 3.31 ± 0.12.
Sequence GSIPEFFHIMKRKFTNKEWETIRS [AASDHPPT] yielded a protein stability index under setting [1] of 2.73 ± 0.27 and a protein stability index under setting [2] of 2.46 ± 0.3.
On to TSYKPYLNRDEEIIKQLQKGVQQK [DENND6A], for which the protein stability index under setting [1] is 3.34 ± 0.25 and the protein stability index under setting [2] worked out at 3.27 ± 0.34.
For SPWDQEERPAQRDCSFPGLPRHQD [TRAF3IP2], in that order: 5.48 ± 0.23 and 5.36 ± 0.38.
For KEDALLYQSKGYNDDYYEESYFTT [EMD], in that order: 4.2 ± 0.2 and 4.21 ± 0.18.
In the case of LTADTKEVTASQEARGLRLSDLED [IRX6], the protein stability index by setting is: under setting [1], 5.37 ± 0.32; under setting [2], 5.35 ± 0.12.
For MTPAEAEMHFLENAKKLSMYGVDL [EPB41L3], in that order: 3 ± 0.29 and 3.03 ± 0.52.
The corresponding values for LNRATQSIERSHRIATETDQIGSE [VTI1B] are 5.44 ± 0.32 and 5.34 ± 0.11.
In the case of TPAPPLWIGLFLVATGSQQSLAQP, the protein stability index was 2.57 ± 0.23 under setting [1] and 2.94 ± 0.74 under setting [2].
Turning to GGMALGVAGLAGLIGLAVSKSKS [FIS1], the protein stability index stood at 2.35 ± 0.34 (treatment: DMSO, c terminus: native) and 1.78 ± 0.27 (treatment: MLN4924 1 uM, 8 h, c terminus: native).
With RAGGGGGGDYGLVTAGCGFGKDFR [PPTC7], the protein stability index is, setting by setting: under setting [1], 3.33 ± 0.51; under setting [2], 3.13 ± 0.21.
In the case of LETEIEALKEELLFMKKNHEEEVK [KRT18], the protein stability index came to 5.1 ± 0.12 under setting [1] and 4.98 ± 0.098 under setting [2].
For the sequence CKVFGIHKACEVAPLQSVFQGQKT [TRIM63], the protein stability index by setting is: under setting [1], 2.81 ± 0.26; under setting [2], 2.96 ± 0.39.
For the sequence YESSADIAGDEGTQIPADEDTQTD [TAF7L], the protein stability index runs as follows: under setting [1], 5.61 ± 0.24; under setting [2], 5.53 ± 0.24.
EYDTVTREVKVLLDQLRFPNGVQL [APMAP] registered a protein stability index under setting [1] of 2.01 ± 0.42 and a protein stability index under setting [2] of 2.22 ± 0.39.
Regarding LSVCPLEGSREHAFQITGVWDASR [PLEKHN1], the protein stability index under setting [1] came to 2.88 ± 0.24 and the protein stability index under setting [2] is 3.38 ± 0.37.
The corresponding values for FRVLCTAPAKYTVFDAEGYVKPQS [MOSPD3] are 2.02 ± 0.35 and 2.19 ± 0.53.
In turn, KTSLLDQLTNTSGTVIGVTSCIVI [NETO1] displayed a protein stability index under setting [1] of 3.14 ± 0.51 and a protein stability index under setting [2] of 2.76 ± 0.43.
The corresponding values for SVTGYSFASDGDSGTCSPLRHSFQ [ADD1] are 3.28 ± 0.25 and 3.11 ± 0.36.
For the sequence YYTMDPTQHVNNWMKHNVADSQIT [PTPRD], the protein stability index stood at 2.95 ± 0.31 under setting [1] and 2.93 ± 0.5 under setting [2].
EAGFHTVEAVAYAPKKELINIKGI [RAD51] gave a protein stability index under setting [1] of 3.01 ± 0.054 and a protein stability index under setting [2] of 3.19 ± 0.29.
Take KAFREEMKIFREKIEDFREEMWTF [CCDC70]: the protein stability index reads like this: under setting [1], 2.35 ± 0.2; under setting [2], 2.03 ± 0.54.
As to FGAVTNVKVIRDFTTNKCKGFGFV [ELAVL3], the protein stability index by setting is: under setting [1], 2.42 ± 0.21; under setting [2], 2.19 ± 0.38.
Regarding EALQNFFSLACSLMGPSRMSLFSL [M1AP], the protein stability index runs as follows: under setting [1], 2.89 ± 0.75; under setting [2], 3.09 ± 0.74.
Turning to CVLVPRADLRLGGQPAPPQLLLGR [SMAD6], the protein stability index is, setting by setting: under setting [1], 2.5 ± 0.5; under setting [2], 2.65 ± 0.099.
As for TFDHEHHTTIVATRHYRPPEVILE [CLK3], the protein stability index amounted to 3.34 ± 0.19 under setting [1] and 3.29 ± 0.17 under setting [2].
As to IADYLLLPLAEREHVSRALCIHTG [TRIB1], the protein stability index by setting is: under setting [1], 2.23 ± 0.47; under setting [2], 2.02 ± 0.33.
As for KLKGAEVTYMNMTAYNKGRLQSSF [PLD5], the protein stability index was 2.36 ± 0.22 under setting [1] and 2.72 ± 0.22 under setting [2].
On to AQKESLQNQHHSASLQASIFSGAA [APBB1IP], for which the protein stability index runs as follows: under setting [1], 4.03 ± 0.22; under setting [2], 3.98 ± 0.26.
Regarding SDKIGSTIDDTISKFRRKDREDSP [CLINT1], the protein stability index amounted to 5.1 ± 0.4 under setting [1] and 5.21 ± 0.3 under setting [2].
As to GLGELGAALLQLVRRLQALRLERE [ESRRA], the protein stability index reads like this: under setting [1], 2.66 ± 0.21; under setting [2], 2.54 ± 0.14.
For the sequence RPNLETYYERVLKRKTFNKVLGHV [GDAP1], the protein stability index came out at 2.46 ± 0.092 under setting [1] and 2.47 ± 0.32 under setting [2].
For TARMEMLIEELYAFMPARSQDPKK [CBY2], in that order: 2.66 ± 0.39 and 2.94 ± 0.27.
On to GNPDPEITWFKDFLPVDTSNNNGR [PTPRD], for which the protein stability index runs as follows: under setting [1], 4.27 ± 0.31; under setting [2], 4.76 ± 0.26.
Consider VERALQLPREPGDSAQFTKALAII [FEM1A], for which the protein stability index runs as follows: under setting [1], 3.1 ± 0.051; under setting [2], 2.8 ± 0.31.

The values above are taken from the supplement of paper PMC10567573.
